Measurements: patent publication US20210301026A1 (ULTRAHUMAN TWELVE, published 2021)
Like-named read-outs stand apart in the source and are kept apart here.

Key:
[1] = molecular target: T1, monomeric human CSF1R ectodomain protein (human, UniProt P07333 20-517); assay: AlphaScreen competition with mu0301 IgG4(S228P) for biotinylated monomeric human CSF1R
T1 construct: also called biotinylated monomeric human CSF1R
Method: The AlphaScreen assay (Perkin Elmer) was performed in a 25 μl final volume in 384-well white microtiter plates (Greiner). The reaction buffer contained 1×PBS pH 7.3 (Oxoid, Cat. nr. BR0014G) and 0.05% (v/v) Tween® 20 (Sigma, Cat. nr. P9416). Purified IgG samples were titrated in three fold serial dilutions starting at 500 nM final concentration and incubated with biotinylated human CSF1R for 20 minutes at room temperature. […] The emission of light was measured in the EnVision multilabel plate reader (Perkin Elmer) and analysed using the EnVision manager software. Values were reported as Counts Per Second (CPS) and corrected for crosstalk. The EC50 values were calculated using the […] in GraphPad Prism software (GraphPad Software, La Jolla, Calif.).

[2] = molecular target: T1, monomeric human CSF1R ectodomain protein; assay: SPR Biacore, IgG captured, monomeric CSF1R analyte
Method: (§1) Affinity (KD) of purified IgGs was determined via SPR with antigen in-solution on a Biacore 3000 (GE). A mouse anti-human antibody (CH1 specific) was immobilized on a CM5 Sensor Chip to a level of 2000 RU in acetate buffer at pH 4.5 using amine coupling following the Wizard instructions for two channels. One channel was used for background signal correction. The standard running buffer HBS-EP pH 7.4 was used. Regeneration was performed with a single injection of 10 μl of 10 mM Glycine at pH 1.5 at 20 μl/minute. IgG samples were injected for 2 minutes at 50 nM at 30 μl/min followed by and off-rate of 60 seconds. The monomeric ectodomain protein (human CSF1R or cynomolgus monkey CSF1R) was injected in two fold serial dilutions from 100 nM down to 3.1 nM, for 2 minutes at 30 μl/min followed by an off-rate of 300 seconds. The obtained sensorgrams were analysed using the Biacore 3000 evaluation (BIAevaluation) software. The KD was calculated by simultaneous fitting of the association and dissociation phases to a 1:1 Langmuir binding model.
(§2) Biacore analyses of binding affinity were performed for all IgGs to solution-phase, monomeric human and cyno CSF1R proteins (Table 6). […] Affinity differentials of less than 3-fold between human and cyno target orthologs are highly beneficial in pre-clinical drug development analyses as they allow more accurate design and interpretation of e.g. monkey safety, PK and PD modelling experiments.

[3] = molecular target: T2, monomeric cynomolgus monkey CSF1R ectodomain protein (cynomolgus monkey, UniProt P07333 20-517 (human entry)); assay: SPR Biacore, IgG captured, monomeric CSF1R analyte
T2 construct: also called monomeric cyno CSF1R; Cyno CSF1R
T2 chain: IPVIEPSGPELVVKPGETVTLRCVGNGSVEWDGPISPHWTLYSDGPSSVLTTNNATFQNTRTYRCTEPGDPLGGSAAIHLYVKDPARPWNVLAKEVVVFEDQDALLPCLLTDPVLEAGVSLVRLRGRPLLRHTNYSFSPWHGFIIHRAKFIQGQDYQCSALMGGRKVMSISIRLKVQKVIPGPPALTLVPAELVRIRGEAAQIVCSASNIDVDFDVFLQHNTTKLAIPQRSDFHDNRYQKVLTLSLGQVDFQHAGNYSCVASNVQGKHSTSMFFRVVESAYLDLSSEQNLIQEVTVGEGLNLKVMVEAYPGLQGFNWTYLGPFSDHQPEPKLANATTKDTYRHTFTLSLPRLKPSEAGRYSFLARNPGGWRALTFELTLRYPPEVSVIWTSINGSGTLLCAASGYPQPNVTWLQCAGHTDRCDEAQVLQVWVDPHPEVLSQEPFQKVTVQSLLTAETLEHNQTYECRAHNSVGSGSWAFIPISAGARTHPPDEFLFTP
Method: as §1, §2

[4] = molecular target: T1, monomeric human CSF1R ectodomain protein; assay: SPR Biacore, IgG captured, monomeric CSF1R analyte; remark: listed apart in the source
Method: as §1

[5] = molecular target: T2, monomeric cynomolgus monkey CSF1R …; assay: SPR Biacore, IgG captured, monomeric CSF1R analyte
Method: as §1

[6] = molecular target: T3, human insulin (human, UniProt P01308 25-54; P01308 90-110, limits assumed); assay: ELISA on human insulin (development risk, polyreactivity), binding score
T3 construct: Coated antigen of the polyreactivity ('PK-risk indicator') ELISA
T3 sequence (P01308 25-54 limits assumed, chain 1 of 2): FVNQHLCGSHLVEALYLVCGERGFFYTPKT
T3 sequence (P01308 90-110 limits assumed, chain 2 of 2): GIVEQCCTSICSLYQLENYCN

B1: 29A03 (antibody, human IgG4, V domains shown)
VH: QVQLVQSGAEVKKPGSSVKVSCKASGYTFSSNYMIWVRQAPGQGLEWMGDINPYNGGATYNQKFQGRVTITADESTSTAYMELSSLRSEDTAVYYCAREPPYFSNLYVMDYWGQGTLVTVSS
VL: EIVLTQSPATLSLSPGERATLSCRASQSVEYEGENYLNWYQQKPGQAPRLLIYAASNRATGIPARFSGSGSGTDFTLTISSLEPEDFAVYYCQLSNQDLLTFGGGTKVEIK
notes: Library-derived clone, tested as human IgG4(S228P)/Ckappa IgG; framework residue limits counted on the grafts
An IC50 [1] of 4.6 nM, a Kd [2] of 0.39 nM and a koff [2] of 0.0006 s⁻¹ were found for B1 in this work. For the same binder, the kon [2] was 1.6e+06 M⁻¹ s⁻¹, the Kd [3] was 1.2 nM and the koff [3] was 0.00032 s⁻¹. For the same binder, the kon [3] was 270000 M⁻¹ s⁻¹.

B2: MH17 (antibody, human IgG4, V domains shown)
VH: QVQLVQSGAEVKKPGSSVKVSCKASGYTFSSAYMIWVRQAPGQGLEWMGDINPYNGGANYAQKFQGRVTITADESTSTAYMELSSLRSEDTAVYYCAREGPYFSNLYVMDYWGQGTLVTVSS
VL: EIVLTQSPATLSLSPGERATLSCRASQSVSYEGENYLNWYQQKPGQAPRLLIYAASNRATGIPARFSGSGSGTDFTLTISSPEPEDFAVYYCQLSNEDLLTFGGGTKVEIK
notes: Deimmunized MH5 derivative, human IgG4(S228P)/Ckappa IgG
A Kd [4] of 0.834 nM, a koff [4] of 0.00112 s⁻¹ and a kon [4] of 1.35e+06 M⁻¹ s⁻¹ were found for B2 in this work. The Kd [5] was 1.33 nM, the koff [5] was 0.000906 s⁻¹ and the kon [5] was 683000 M⁻¹ s⁻¹. B2: no binding [6].

B3: 30D02 (antibody, human IgG4, V domains shown)
VH: QVQLVQSGAEVKKPGSSVKVSCKASGYTFSSYYMIWVRQAPGQGLEWMGDINPYNGGTTYAQKFQGRVTITADESTSTAYMELSSLRSEDTAVYYCAREGPYFSNLYVMDYWGQGTLVTVSS
VL: EIVLTQSPATLSLSPGERATLSCRASQSVEYQGENYLNWYQQKPGQAPRLLIYAASNRATGIPARFSGSGSGTDFTLTISSLEPEDFAVYYCQLSNQDLLTFGGGTKVEIK
notes: as for B1
An IC50 [1] of 3.92 nM, a Kd [2] of 0.48 nM and a koff [2] of 0.00049 s⁻¹ were found for B3 in this work. The kon [2] was 1e+06 M⁻¹ s⁻¹, the Kd [3] was 1.7 nM and the koff [3] was 0.00032 s⁻¹. The kon [3] was 190000 M⁻¹ s⁻¹.

B4: MH16 (antibody, human IgG4, V domains shown)
VH: QVQLVQSGAEVKKPGSSVKVSCKASGYTFSSAYMIWVRQAPGQGLEWMGDINPYNGGANYAQKFQGRVTITADESTSTAYMELSSLRSEDTAVYYCAREGPYFSNLYVMDYWGQGTLVTVSS
VL: EIVLTQSPATLSLSPGERATLSCRASQSVSYEGENYLNWYQQKPGQAPRSLIYAASDRATGIPARFSGSGSGTDFTLTISSPEPEDFAVYYCQLSNEDLLTFGGGTKVEIK
notes: Deimmunized MH5 derivative, human IgG4(S228P)/Ckappa IgG; also called mAb-5
With B4 the Kd [4] was 0.444 nM, the “fold of the affinity of hu0301” value [4] was no more than 2 fold and the koff [4] was 0.000897 s⁻¹. The kon [4] was 2.02e+06 M⁻¹ s⁻¹, the Kd [5] was 0.785 nM and the “fold of the affinity of hu0301” value [5] was no more than 2 fold. The koff [5] was 0.00075 s⁻¹, the kon [5] was 956000 M⁻¹ s⁻¹ and the binding result [6] was “no binding”.

B5: MH21 (antibody, human IgG4, V domains shown)
VH: QVQLVQSGAEVKKPGSSVKVSCKASGYTFSSSYMIWVRQAPGQGLEWMGDINPYNGGANYAQKFQGRVTITADESTSTAYMELSSLRSEDTAVYYCAREGPYFSNLYVMDYWGQGTLVTVSS
VL: EIVLTQSPATLSLSPGERATLSCRASQSVSYEGENYLNWYQQKPGQAPRLLIYAASNRATGIPARFSGSGSGTDFTLTISSPEPEDFAVYYCQLSNEDLLTFGGGTKVEIK
notes: as for B2
A Kd [4] of 1.23 nM, a koff [4] of 0.00189 s⁻¹ and a kon [4] of 1.54e+06 M⁻¹ s⁻¹ were found for B5 in this work. For the same binder, the Kd [5] was 1.84 nM, the koff [5] was 0.00137 s⁻¹ and the kon [5] was 746000 M⁻¹ s⁻¹. B5: no binding [6].

B6: MH20 (antibody, human IgG4, V domains shown)
VH: QVQLVQSGAEVKKPGSSVKVSCKASGYTFSSSYMIWVRQAPGQGLEWMGDINPYNGGANYAQKFQGRVTITADESTSTAYMELSSLRSEDTAVYYCAREGPYFSNLYVMDYWGQGTLVTVSS
VL: EIVLTQSPATLSLSPGERATLSCRASQSVSYEGENYLNWYQQKPGQAPRSLIYAASDRATGIPARFSGSGSGTDFTLTISSPEPEDFAVYYCQLSNEDLLTFGGGTKVEIK
notes: as for B2
A Kd [4] of 0.709 nM, a koff [4] of 0.00177 s⁻¹ and a kon [4] of 2.49e+06 M⁻¹ s⁻¹ were found for B6 in this work. The Kd [5] was 1.24 nM, the koff [5] was 0.00134 s⁻¹ and the kon [5] was 1.08e+06 M⁻¹ s⁻¹. B6: no binding [6].

B7: MH40 (antibody, human IgG4, V domains shown)
VH: QVQLVQSGAEVKKPGSSVKVSCKASGYTFSSHYMIWVRQAPGQGLEWMGDINPYNGGANYAQKFQGRVTITADESTSTAYMELSSLRSEDTAVYYCAREGPYFSNLYVMDYWGRGTLVTVSS
VL: EIVLTQSPATLSLSPGERATLSCRASQSVSYEGENYLNWYQQKPGQAPRSLIYAASDRATGIPARFSGSGSGTDFTLTISSPEPEDFAVYYCQLSNEDLLTFGGGTKVEIK
notes: as for B2
A Kd [4] of 0.553 nM, a koff [4] of 0.00113 s⁻¹ and a kon [4] of 2.05e+06 M⁻¹ s⁻¹ were found for B7 in this work. For the same binder, the Kd [5] was 0.948 nM, the koff [5] was 0.00101 s⁻¹ and the kon [5] was 1.06e+06 M⁻¹ s⁻¹. B7: no binding [6].

B8: 29B07 (antibody, human IgG4, V domains shown)
VH: QVQLVQSGAEVKKPGSSVKVSCKASGYTFTSYYIIWVRQAPGQGLEWMGDINPYNGGATYAQKFQGRVTITADESTSTAYMELSSLRSEDTAVYYCAREPPYFSNLYVMDYWGQGTLVTVSS
VL: EIVLTQSPATLSLSPGERATLSCRASQSVEYEGDNYLNWYQQKPGQAPRLLIYAASNRATGIPARFSGSGSGTDFTLTISSLEPEDFAVYYCQLSNQDLLTFGGGTKVEIK
notes: as for B1
An IC50 [1] of 3.86 nM, a Kd [2] of 0.34 nM and a koff [2] of 0.00051 s⁻¹ were found for B8 in this work. It also gave a kon [2] of 1.5e+06 M⁻¹ s⁻¹, a Kd [3] of 0.79 nM and a koff [3] of 0.00025 s⁻¹. It also gave a kon [3] of 310000 M⁻¹ s⁻¹.

B9: MH41 (antibody, human IgG4, V domains shown)
VH: QVQLVQSGAEVKKPGSSVKVSCKASGYTFSSHYMIWVRQAPGQGLEWMGDINPYNGGANYAQKFQGRVTITADESTSTAYMELSSLRSEDTAVYYCAREGPYFSNLYVMDYWGRGTLVTVSS
VL: EIVLTQSPATLSLSPGERATLSCRASQSVSYEGENYLNWYQQKPGQAPRLLIYAASNRATGIPARFSGSGSGTDFTLTISSPEPEDFAVYYCQLSNEDLLTFGGGTKVEIK
notes: Deimmunized MH5 derivative, human IgG4(S228P)/Ckappa IgG; also called MN41
A Kd [4] of 0.851 nM, a koff [4] of 0.00109 s⁻¹ and a kon [4] of 1.28e+06 M⁻¹ s⁻¹ were found for B9 in this work. For the same binder, the Kd [5] was 1.46 nM, the koff [5] was 0.000972 s⁻¹ and the kon [5] was 666000 M⁻¹ s⁻¹. B9: no binding [6].

B10: MH25 (antibody, human IgG4, V domains shown)
VH: QVQLVQSGAEVKKPGSSVKVSCKASGYTFSSHYMIWVRQAPGQGLEWMGDINPYNGGANYAQKFQGRVTITADESTSTAYMELSSLRSEDTAVYYCAREGPYFSNLYVMDYWGQGTLVTVSS
VL: EIVLTQSPATLSLSPGERATLSCRASQSVSYEGENYLNWYQQKPGQAPRLLIYAASNRATGIPARFSGSGSGTDFTLTISSPEPEDFAVYYCQLSNEDLLTFGGGTKVEIK
notes: as for B2
A Kd [4] of 0.634 nM, a koff [4] of 0.000921 s⁻¹ and a kon [4] of 1.45e+06 M⁻¹ s⁻¹ were found for B10 in this work. The Kd [5] was 1.03 nM, the koff [5] was 0.000758 s⁻¹ and the kon [5] was 733000 M⁻¹ s⁻¹. B10: no binding [6].

B11: MH29 (antibody, human IgG4, V domains shown)
VH: QVQLVQSGAEVKKPGSSVKVSCKASGYTFSSNYMIWVRQAPGQGLEWMGDINPYNGGANYAQKFQGRVTITADESTSTAYMELSSLRSEDTAVYYCAREGPYFSNLYVMDYWGRGTLVTVSS
VL: EIVLTQSPATLSLSPGERATLSCRASQSVSYEGENYLNWYQQKPGQAPRLLIYAASNRATGIPARFSGSGSGTDFTLTISSPEPEDFAVYYCQLSNEDLLTFGGGTKVEIK
notes: as for B2
A Kd [4] of 0.562 nM, a koff [4] of 0.000961 s⁻¹ and a kon [4] of 1.71e+06 M⁻¹ s⁻¹ were found for B11 in this work. For the same binder, the Kd [5] was 0.913 nM, the koff [5] was 0.000813 s⁻¹ and the kon [5] was 891000 M⁻¹ s⁻¹. B11: no binding [6].
